Consider 13 sequences from the DeepSol protein solubility set.

The data set is described as follows: soluble on expression in E. coli; label from the status in PepcDB or PDB records.
Regarding “MGSDKIHHHHHHMSHPPLIVHVIFHLGVGGLENGLVNLINHIPADRYRHAIICLKGFSEFHKRLNRDDVEIIALNKREGKDFSVYGKLYRVFRQLKPDIVHTRNLTAMEAQVVAAVAGVKARVHGEHGRDIFDLDGKNWKYNLLRKAIRPFIHHFITVSKDLENWLIDTVKVSPVKVHQIYNGVEHLRFHPGGTVPVEIFPPDFFAGRPFVVGSVGRMAAVKDFPTLVQAFLMLRNELSEIDRPLRLIIAGEGVARAECEAMLRSAGVEQFAWLPGERDDIPQLMQAMDVFVLPSLGEGISNTVLEAMASGLPVIATRVGGNTELVLEGETGRLVPSGDPVALARAISQYHQDNTAVYKHGQHARAIIEQQFSMRSMTNGYLAVYDRVLGYKSKTETIN”, the “soluble on expression in E. coli” value is on record as “not soluble”.
The result for “MLFPTTIAGSLPKPEWLAEPNKLWAPWKSTGAELLRAKRDATILALKLQEDSGIDIVTEGEQARQHFVHGFLEAVEGIDFAHKVEMGIRNDRYKAMVPQVVAPLRLKGRVHGFEGQIARAHSTHKIKFTLPGPMTIIDTIADRHYGDRVKMAFAFAELLNEEAKALQADGIDMIQFDEPAFNVYMSEAADWGVKALERAAQDLTCATAVHICYGYGIKANTDWKETLGAEWRQYEDIFPAIDASSIQQVAVECRNSKVPLELLSLLKGKIVQAGVIDVASDEVETAEDVCATIEAVMQHVPKSNIIATTNCGMAPMRREIAEAKLAALGAGAELARERFKLEHHHHHH” reads “soluble”; that for “MGSDKIHHHHHHMSKMLTLAVRAHDVGTKISPVELAKKIAETNITSIQFALGISYPEYASAAVLSPGLGSQLKNIFEDEKITISVLSCYINLIHPDLEEREKRLHQFETYIRYDSMFGAKIVATETGSIYETIYYTEDNYTEEAYEEVLFSVRRLCREAEKYGIIVGIEPGINHPIHTIEKMQRLIDEVASTNLGIILDPTNLIRVDIDKTYLEIVEEAFECFGEKIVAFHLKDFIIRNQQIFPVAIGEGQVPLTETIQFLNKHKPGLFTIFEETPFEKIASAYQKVSQYHSI”, “not soluble”; that for “MEIGVVGKPNVGKSTFFSAATLVDVEIANYPFTTIEANVGVTYAITDHPCKELGCSPNPQNYEYRNGLALIPVKMVDVAGLVPGAHEGRGLGNKFLDDLRMASALIHVVDATGKTDPEGQPTDYHDPVEDIEFLEREIDYWIYGILSKGWDKFAKRIKLQKIKLESAIAEHLSGIGVNENDVWEAMHKLNLPEDPTKWSQDDLLAFASEIRRVNKPMVIAANKADAASDEQIKRLVREEEKRGYIVIPTSAAAELTLRKAAKAGFIEYIPGASEFKVLRDMSEKQKRALMVIKEKVLDRFGSTGVQEVINRVVFDLLKLIPVYPVHDENKLTDQFGNVLPHVFLMKKGSTPRDLAFKVHTDLGKGFLYAINARTKRRVGEDYELQFNDIVKIVSVTR”, “soluble”.
Consider “MSIDIKYLSRIDIDREEFFFKDSRLMCKKFDEEREVLTLLEFDTKFRVNLLKKDKVYKYFLVSDANHKLLIANLVTEQQAKDLSFIEKDIMKIASSATAYGASDIHFIREDRICKIKFRVNGTMIDYREILSSEADALMFVLYNVMATTKETTWNRKLPQDANIILVINEKAYRFRYAHMPLFGEGGKNYHAVVRIIYPSNNFVCTNYQDIGYNEADTDAIARILNTSYGLFIVSGTTGSGKSTSLKKYIELLFFNKYKGKGCFVTVEDPVEYLISGAQQSSIVADNDDKTKNPFADAVRSAMRRDPDVIMIGEIRDKPTVEALSSAVESGHYCLTTIHAGSVVSVLQRLSGLGMKADKIASPGFLAGITSQKLIPELCPSCKVSFVDERYQRAVFSANENGCEACNHSGFKGRLLLLETLVPTVEDLELVASENWVSLYRKYRERRFIKTGKKGLGEGFSIKDKAYYNVLKGKVCHEYFMLHFGQLDHEDENIIYENYLQEV”, for which the “soluble on expression in E. coli” value is reported as “not soluble”.
The result for “MSLKTTEYVAEILNELHNSAAYISNEEADQLADHILSSHQIFTAGAGRSGLMAKSFAMRLMHMGFNAHIVGEILTPPLAEGDLVIIGSGSGETKSLIHTAAKAKSLHGIVAALTINPESSIGKQADLIIRMPGSPKDQSNGSYKTIQPMGSLFEQTLLLFYDAVILKLMEKKGLDSETMFTHHANLEEGGSHHHHHH” reads “soluble”; that for “SVFKFIDLPQEEPRPSGGGKVTDLVLDNPHAQDCWPNQGHMDVQGLTVKYTEAGRSVLQNLSFTVEAGQSVGVLGRTGSGKSTLLSALLRLASTDGEISIDGVSWNSVTLQTWRKAFGVVPQKIFILTGTFRMNLDPHACHSDEELWRVAEEVGLKSVIEQFPDKLDFQLEDGGYVLSNGHKQLMCLARSILSKARILLLDEPSAYLDPITLQVLRKTLKQSFSNCTVILSEHRVEPLLECQSFLMIEGSSMKRYDSIQKLLNETSHLKQAISAAERLKLFPLHRLNSSKRPPQSQQPKITALQEEAEDEVQDTRL”, “not soluble”; that for “MSLSPTKTRRILFLLPYVADLSVGDFSKGLNPVMQDKQIDVMMTTLDFLQNKTAKELINEFDGLIYYALDTEQHLDLLFELSLKEFPVVILDKKIYELPFPTVLSDNFQGGALAASYLIEQGHSKIAYLFGTQTHPQSVRQRYLGYLEALDKAGLTFHTSLDDKSATLDELLSYITKYEVTAFVCENDVVAIQTMNLLRQHGYHIPEDFSIIGFDDIQAAALVDPPLTTIAQDFEQLGKLAGDALVTWLETKDRPSDSKFPVSFIKRQSTKEGHHHHHH”, “soluble”.
As for “SNAAEHVRLATTTSTYHSGLLDYLLPQFEKDTGYKVDVIAAGTGKALKMGENGDVDLVMTHAPKAEGTFVEKGYGVLPRKLMYNDFVIVGPKADPAKIKDDESVLDVFKEIANKNATFISRGDDSGTHKKEMGFWAQTKIEPNFGGYRSVGQGMGPTLNMASEMQGYTMSDRGTWLAYQNKLDLEILFQGDEKLFNPYQVILVNPERYPTINYQGAKAFSDWLVNPRGQELINGFRL”, the “soluble on expression in E. coli” value is reported as “soluble”.
The result for “MHPPIKIQTILLFILTTVHCSAKRLPQIYWNSTNPLVERYAAIGDTLDIVCPFFDENSDELTEQSIIYRVTEEEYENCERRSKAKELGRCTQPYQEEKLKVAFRLMSPNPSGLDYRPGVTYYFISTSTGSRKGLYNEQGGLCASHNLKMVIHITDRNGDIGPHHHRHHHKKTTTTTTTSTSTSTPKTIPPVVEMDSSAEKLWEQFYEKVMPIDNTWPEITRGERVTLYQGNKKDEYEQVPAEVVDFEIHEIGDVESLYSSSGRLRYVLLLPALLLLRIF” reads “not soluble”; that for “MSHFLVEKLTKTVGDKTVFQDISFIIHDFDRIGIIGVNGTGKTTLLDVLSGRLGFDGDHSPFSKANDYKIAYLTQDPEFNDAASVLDTVLSADVKAIQLIRQYELLMANYTEDKQESLESLMSEMDRLDAWSIESDVKTVLSKLGITDLEQKVGDLSGGMRRRVQLAQVLLGAADLLLLDEPTNHLDIDTIAWLTTYLKTAKKTVLFITHDRYFLDHVATRIFELDKAGLTEYQGNYQDYVRLKAEQDERDAANLHKKKQLYKQELAWMRTQPQARATKQQARINRFSDLKKEVHQDSSADKLEMTFETSRIGKKVIHFEDLSFAYGDRQLIKDFNLIIQNKDRIGIVGDNGVGKSTLLNIINGDLKPTSGKLDIGDTIRVGYFSQQLKDMDETKRVINYLQEVADEVKTSVGTTSISELLEQFLFPRSSHGTLIAKLSGGEKKRLYLLKLLIEKPNVLLLDEPTNDLDIATLKVLENFLANFAGPVITVSHDRYFLDKVATKILAFEEGDIRVFYGNYSDYLDEKVFEKETVEADLAKTTVTEEVPLPQKEERKRMSYLEKQEWAQIEDKIATIEANIEEIENQMLTVVSDYGQLAQLQKELDQRNNDLLLAYERFEYLSGLDI”, “not soluble”; that for “VSRAESNRTYSGQPVAERRVARRARFLDSALSVFAEKTYAHSSISDICAHAGLSRRQFYEEFGSREDILLALYDTIQDEARDAVLAANDRAPSRDPRTVAGTVMTAYIESVGTDERRARIIFVEVVGAGPRVEQYRLERRTQWAQLFETVTRTIDGGIVDPPERFEMVSIAFIGAVNDLAHHWSTASPRPSPSVLVDVLSTMLIALVTDQT”, “not soluble”.
On to “MKGRTMNKPFITQAQLALYKYQPSSKYFGQSMAVIAQSEFVEFAKINKSENVIDCFSFFWNRRIKHDIWLISFSDNSEMVIKESLKDGHKIYKFEFCEIVDNCNFDDVFV”, for which the “soluble on expression in E. coli” value was “not soluble”.
